From patent publication US20210115137A1 (NATIONAL UNIVERSITY CORPORATION HOKKAIDO UNIVERSITY, published 2021)

Biological target: T1, extracellular domain of mouse PIR-B (Domains 1 to 6), biotinylated (mouse, UniProt P97484 25-642, biotinylated with BirA (site not stated))
T1 construct: The full-length protein is cited as NCBI NM_011095; also called Paired-Immunoglobulin-like Receptor B; PIR-B (extracellular domain)
T1 sequence: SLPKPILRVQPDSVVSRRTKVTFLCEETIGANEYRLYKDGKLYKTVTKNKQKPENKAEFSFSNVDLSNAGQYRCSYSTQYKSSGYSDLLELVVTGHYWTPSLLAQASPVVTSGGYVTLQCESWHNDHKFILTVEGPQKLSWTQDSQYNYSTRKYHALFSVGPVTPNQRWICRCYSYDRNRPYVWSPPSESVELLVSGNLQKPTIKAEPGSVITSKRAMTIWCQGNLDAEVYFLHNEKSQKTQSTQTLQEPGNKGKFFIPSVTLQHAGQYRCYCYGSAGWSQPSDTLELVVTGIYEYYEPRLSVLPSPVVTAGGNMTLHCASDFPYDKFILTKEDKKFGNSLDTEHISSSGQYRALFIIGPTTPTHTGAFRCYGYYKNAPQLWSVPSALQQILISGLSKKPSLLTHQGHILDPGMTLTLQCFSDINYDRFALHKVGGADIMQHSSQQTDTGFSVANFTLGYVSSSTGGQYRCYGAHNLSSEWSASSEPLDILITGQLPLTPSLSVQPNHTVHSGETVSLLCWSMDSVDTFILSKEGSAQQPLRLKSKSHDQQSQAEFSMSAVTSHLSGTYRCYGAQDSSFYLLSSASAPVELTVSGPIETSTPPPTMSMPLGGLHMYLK
Test: SPR (BIAcore 3000), biotinylated PIR-B extracellular domain on streptavidin chip, HLA-G2 0.10-1.56 µM as analyte, 1:1 binding model
Protocol: Using BIAcore® 3000 (GE healthcare BIAcore), the affinity between HLA-G2 and the extracellular domain of PIR-B prepared as described above was determined in a surface plasmon resonance experiment. Streptavidin was first covalently fixed on a research grade sensor chip, and then the biotinylated extracellular domain of PIR-B or BSA as a negative control was fixed via the streptavidin. Then, a solution of HLA-G [α1-3] dimer in HBS-EP running buffer (10 mM HEPES pH7.5, 150 mM sodium chloride, 3.4 mM EDTA, 0.005% Surfactant P20) was run at 5 μL/min. Kinetics analysis of binding response was performed at various concentrations by subtracting the response measured in a control flow cell from the response measured in a sample flow cell. BIAevaluation version 4.1.1 (GE Healthcare) was used in the analysis.

B1: HLA-G2 (HLA-G [α1-3] dimer; complex of the α1 and α3 domains of the HLA-G molecule) (ligand)
chain: GSHSMRYFSAAVSRPGRGEPRFIAMGYVDDTQFVRFDSDSACPRMEPRAPWVEQEGPEYWEEETRNTKAHAQTDRMNLQTLRGYYNQSEANPPKTHVTHHPVFDYEATLRCWALGFYPAEIILTWQRDGEDQTQDVELVETRPAGDGTFQKWAAVVVPSGEEQRYTCHVQHEGLPEPLMLRW
notes: It was run in SPR as 'HLA-G [α1-3] dimer'; also called α1-3 complex
Q: For B1, which Kd is on record?
A: 142 nM
